In patent publication US20250042974A1, “LIPID MEDIATOR CHAPERONE AND USES THEREOF” (The Children's Medical Center Corporation, priority 2021, published 2025):
Entries after “also recorded” stand apart in the source; their conditions may differ.

B1: A1M: recombinant fusion protein of Apolipoprotein A1 and Apolipoprotein M with GGGGS linker and 6x His tag (SEQ ID NO: 23) (protein)
chain: MKAVVLAVALVFLTGSQAWHVWQQDEPQSQWDKVKDFANVYVDAVKDSGRDYVSQFESSSLGQQLNLNLLENWDTLGSTVSQLQERLGPLTRDFWDNLEKETDWVRQEMNKDLEEVKQKVQPYLDEFQKKWKEDVELYRQKVAPLGAELQESARQKLQELQGRLSPVAEEFRDRMRTHVDSLRTQLAPHSEQMRESLAQRLAELKSNPTLNEYHTRAKTHLKTLGEKARPALEDLRHSLMPMLETLKTKAQSVIDKASETLTAQTRTRPLGGGGSNQCPEHSQLTALGMDDTETPEPHLGLWYFIAGAASTTEELATFDPVDNIVFNMAAGSAPRQLQLRATIRTKSGVCVPRKWTYRLTEGKGNMELRTEGRPDMKTDLFSSSCPGGIMLKETGQGYQRFLLYNRSPHPPEKCVEEFQSLTSCLDFKAFLVTPRNQEACPLSSKHHHHHH
B2: ApoM-S1P: ApoM-bound S1P as named in FIG. 6 results; chaperone form not specified (protein, UniProt O95445 1-188, looked up)
Apolipoprotein M: MFHQIWAALLYFYGIILNSIYQCPEHSQLTTLGVDGKEFPEVHLGQWYFIAGAAPTKEELATFDPVDNIVFNMAAGSAPMQLHLRATIRMKDGLCVPRKWIYHLTEGSTDLRTEGRPDMKTELFSSSCPGGIMLNETGQGYQRFLLYNRSPHPPEKCVEEFKSLTSCLDSKAFLLTPRNQEACELSNN
modifications: bound S1P
notes: chaperone form not specified

Assays:
HUVEC = assay: TEER analysis of endothelial barrier function; format: cell-based, human; settings: HUVEC; S1P 10-300 nM, A1M 0.8-24 μg/ml; unloaded controls up to 24 μg/ml
Procedure: Transendothelial Electrical Resistance (TEER) was performed on HUVEC as described previously (Swendeman et al, 2017). Essentially, HUVECs were maintained in HUVEC Growth Medium (HGM; M199 medium supplemented with 10% FCS (Corning), 1:100 Pen-Strep (Sigma), 8 mM Glutamine (Sigma), Heparin (Sigma, 100 U, LMW) and Sheep Brain Extract prepared (REF). All cultures were maintained on Fibrobronectin (2 μg/ml) coated plates. For TEER analysis a 96 well ECIS system (96W10idf PET array, Applied BioPhysics) was employed. Wells were coated with Fibronectin (2 μg/ml) resuspended in saline for 30 minutes at room temp. HUVECs were harvested, resuspended in HGM at a cell density of 25-30×10^3 cells/well and allowed to adhere overnight. Prior to analysis, culture media was removed and replaced with M199 media supplemented with Pen-Strep/Glutamine and 1% FCS for 30 minutes. For stimulation studies, either Iloprost (Cayman Biochemicals) or Iloprost loaded onto ApoA1 or ApoA1-ApoM chaperones, or S1P prepared on ApoA1-ApoM or ApoM-Fc chaperones were added to cultures and TEER studies were performed from 3-24 hours.

NF-κB = assay: TNFα-induced NF-κB luciferase reporter assay in HMEC; format: cell-based, human
Procedure: TNFα-dependent NF-κB signaling was determined by using an NFκB-Luciferase based reporter assay system (pGL4.32[luc2P/NF-κB-RE/Hygro]; Promega). A stable NFκB reporter cell line in human microvascular endothelial cells (HMEC-1; ATCC) was created. HMEC were maintained in 10% FCS/Pen-Strep MCDB media supplemented with 2 mM L-Glutamine (Sigma), EGF (2 ng/ml; R&D systems) and Hydrocortisone (1 ng/ml; Sigma). […] The 5×10^5 reporter cells were distributed to 12 well plates and allowed to adhere for 24 hours. Media was replaced with MCDB media supplemented with 1% FCS, L-Glutamine. […] Samples were extracted using cell lysis buffers (Promega), luciferin substrate was added and the plates were measured for […] at 470 nm for 8-15 minutes in a SpectraMax L 96-well plate reader (Molecular Devices).

ICAM-1 = assay: TNF-α-induced ICAM-1 expression in HUVEC (western blot); format: cell-based, human; settings: 10 min pretreatment, TNFα 10 ng/ml 5 hours, 200 μg/ml
Procedure: HUVECs were plated as described above. After 24 hours cells were shifted to M199 media supplemented with 1% FCS, 8 mM Glutamine, 1× Pen-Strep. After 30 minutes, cells were pretreated for 10 minutes with media, ApoM-Fc-S1P (100 nM S1P), Iloprost (100 nM), ApoA1-ApoM (200 μg/ml), ApoA1-ApoM-Iloprost (200 ug/ml; 100 nM Iloprost) or ApoA1-ApoM-S1P (200 μg/ml 100 nM S1P) or in combinations and subsequently treated with TNF-α (10 ng/ml). After 5 hours, cells were lysed with cell lysis buffer (TBS-T; 20 mM Tris-pH8, 160 mM NaCl, 1% Triton, 1× protease inhibitor cocktail (Sigma)), collected and centrifuged at 20,000×g for 5 minutes at 4° C., extracts were analyzed by 10% SDS-PAGE, transferred to nitrocellulose membrane (Bio-Rad), blocked in 5% milk, and probed with antibodies to ICAM-1 (1:1000, sc-8439, Santa Cruz Biotech) and Actin (1:5000, sc-8432, Santa Cruz Biotech). Blots were developed with appropriate secondary antibodies linked to HRP and visualized by chemiluminescence (Immobilon Western, EMD Millipore) using a ChemiDoc Imaging (Biorad).

Neutrophils = assay: fMLP-dependent neutrophil ROS generation; format: cell-based, mouse; settings: ApoM-S1P 100 nM S1P, ApoA1-Iloprost 160 nM drug, area under the curve
Procedure: Peritoneal Neutrophils were isolated from C57Bl/6 mice after thioglycolate elicitation. Thioglycolate (2 ml of 2% v/v) resuspended in water was administered by intraperitoneal injection. After 4 hours, mice were euthanized and 5 ml of HBSS was injected intraperitoneally, the abdomen was messaged for 1 minute and the peritoneal fluid was removed. The resulting cells were pelleted, RBCs were lysed with ACK buffer, re-pelleted and resuspended in PBS-glucose. Cells were counted, 5×10^5 cells were dispersed into 96 well clear bottom plates containing luminol 100 mM and 10 U/ml of horseradish peroxidase and read for blank background. F-Met-Leu-Phe (fMLP; 10 μM) was added and plates were read on a SpectraMaxL1 (Molecular Devices, San Jose, CA) over 5 minutes as described previously. The area under the curve was calculated by using GraphPad Prism 7 (GraphPad Software, San Diego, CA).

Molecule | enhancement of endothelial barrier function (TEER) (HUVEC) | inhibition of TNFα-induced NF-κB activity at higher doses (NF-κB; 100-400 μg/ml, bi-phasic dose-response) | inhibition of TNFα-induced NF-κB activity (NF-κB; low doses 25-50 μg/ml) | inhibition of TNFα-induced ICAM1 expression (ICAM-1) | inhibition of neutrophil ROS generation (Neutrophils)
B1 | no functional barrier protection; also recorded: did not induce endothelial barrier enhancement | not as inhibitory | ~25% | inhibiting downstream inflammatory ICAM1 expression | 
B2 |  |  |  |  | ~42%
